Values quoted from earlier work, collected in patent US20220347322A1, “METHOD OF TREATING ARTERIOVENOUS MALFORMATIONS BY TARGETING THE EPHRIN PATHWAY” (THE REGENTS OF THE UNIVERSITY OF CALIFORNIA, priority 2019, published 2022).

Tested on: EphB4 signaling
Conditions: in mice; cited reference 38; cited from earlier work

B1: sEphB4: The soluble extracellular domain of EphB4; pharmacological inhibitor of EphB4 signaling (protein, UniProt P54760 16-539, looked up)
extracellular domain: LEETLLNTKLETADLKWVTFPQVDGQWEELSGLDEEQHSVRTYEVCDVQRAPGQAHWLRTGWVPRRGAVHVYATLRFTMLECLSLPRAGRSCKETFTVFYYESDADTATALTPAWMENPYIKVDTVAAEHLTRKRPGAEATGKVNVKTLRLGPLSKAGFYLAFQDQGACMALLSLHLFYKKCAQLTVNLTRFPETVPRELVVPVAGSCVVDAVPAPGPSPSLYCREDGQWAEQPVTGCSCAPGFEAAEGNTKCRACAQGTFKPLSGEGSCQPCPANSHSNTIGSAVCQCRVGYFRARTDPRGAPCTTPPSAPRSVVSRLNGSSLHLEWSAPLESGGREDLTYALRCRECRPGGSCAPCGGDLTFDPGPRDLVEPWVVVRGLRPDFTYTFEVTALNGVSSLATGPVPFEPVNVTTDREVPPAVSDIRVTRSSPSSLSLAWAVPRAPSGAVLDYEVKYHEKGAEGPSSVRFLKTSENRAELRGLKRGASYLVQVRARSEAGYGPFGQEHHSQTQLDESEGWREQLA
modifications: extracellular domain
inhibition of EphB4 signaling: completely inhibits EphB4 signaling
